Results reported in the domain aggregation screens of Martell et al. (2025).

Assay: soluble fraction after stress (log2 fold change); higher = more stays soluble; pooled small domains, quantitative proteomics
Settings: stress: 50 degC
Procedure, shortened: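 Each library was heated to 50°C as a stress step. The libraries, made up of small protein domains, were pooled and analysed at high throughput by quantitative proteomics. The reported value is the base-two logarithm of the fold change in each protein's soluble amount after stress, taken as a measure of aggregation propensity. The higher the value, the more protein stays in solution.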

Sequence | soluble fraction (log2)
HMAADDGSARAEQLREMYSLISGLDKLDKAIILMWLDERSYDEIAEVTGFTRNNVATRLHRIKSRLARQSN | -0.783
HMNLEQTIVLGKRLFNNALDTLGKKQRSIKNKQINKLLELLNFKNMNELYQSIGVGDKNPLLMAQMML | -0.458
HMTGLSAQILAKLRDNHGVLPVSDKSDPAVISNLFGVSKGNFKKAIGGLYKEGQIVIHADRIEL | -0.0576
HMGKVNGFEITVIEGKNVVGSITPRQAIAKNSDGVIQLRGEQSFSATDQVLINELAFYIKSNNLKA | -0.949
HMLPDAESFSYEVPYTKGDGGTYNYEGKIKAQNADAARDEIIRQAQVYFQMNPQFTPDYPSTTITSLD | 0.171
HMEQVSDPALLERYAKEVVAASPKAVADYQAGNAKAFQALVGQMMKRTKGKGDPALIREILQKL | 0.0957
HMLGVKKFGGEAVIAGNIILRQRGTKWITGSNVGIGKDHTLFAKIEGYVVFERMRGRDGQQQISIYP | -0.101
HMNKKETRLNNFIHFLKIRNSITVKEMANHLNVSEMTVRRDIKELTADHTINFENGKIMFNPQSSL | -1.06
HMGQVLEGVFRRKANGKNAFIPDGGGEPILVAERNSAHAMDGDRVKATLLARRKHHVREAQVTEILKRSSK | -0.0521
HMAPVLTATVNTTSGKLNMRAAASATSAKLTSIPRGATVTVLEKGTTWSRISYGGYTGYVMTQYLKFD | -0.167
HMSTVELPVQINGKVRGRITVPANAGQEDVKQAALADSKVQRYIEGASIRKVIVVPRKLVNIVV | 0.13
HMTKVIEFLVSDEEHGVRADKAFVSHNQKLSRSYFKKLILNGNLYINNKVNLDPSYKLIKGSTVRIILPE | -2.07
HMDIIIEEGIDESLSTDDAILDLLGRASDAFSNAQKALLEGDLGSYQKLIEQAERLVKKATELLGENN | -0.0938
HMTKEAIAQKLRIARQESGLTQKDVSAKIGRPQQTIASWEVGRSQPDADTLYSLLLLYKVSPNTFFEYD | -0.352
HMNTISTLEITTKKDIRILDESELLKSKSSKNNIFNYLLASGDFNLLKDKLNEIDEFSDEIISYQLN | -0.611
HMGTVKWFNATKGFGFIVPSDGGKDVFVHITAVQKAGLQGLNEGQKVSYEVAMERGKAAATNLR | -0.726
HMTKSEWLRESREHLGLSQTDLRNLLNTALNRSYDKSRISRWENSKENIPAEVVKQIESLIATR | 0.123
HMDAVQAGKRVLIVDDLIATGGTAKAATDLIEKAGGTVVGFSFVMRLDGLDGLDKLDGKPSSSLIAMP | 0.237
HMEMTGAHLRKKIRAKGFTFQQIADAIGESKQNLSQILSTNNIKTGTLERIAAAMGESVSYF | -0.191
HMEISAIIGNNLQQLRKEQGLSLDQLALKTGVSKAVLSQLENGKANPTINTIWKIATALHVTYSALLEPP | -0.391
HMNHGDATTETQAEIMAILSDMKPHPITELNTIKRPYEQIDTALTYLINEEKIYRMDGMIFIG | -0.694
HMSPEWTPAEQDAIDKASEGEYGEALQRVLSGDYEPMDIPDALWGVQQVADKDTYSSIQKKIADIGN | 0.42
HMSLNSELIARIENLIASIEDKRSWGYGFAESVLGQVQAGATLSPRQLEIIAKLEKENSYSVQLERQ | -0.765
HMGIYDQAAAAYIEFVESKNRAPKWNELIDALYKENGKDWIDRSTLHGLLRRKEFQELLAQKRKEHLV | -0.184
HMSSQGSLEKGYSALLDGRLDDAALAYGAALAANPMERDALLGLAYVAHSKGRREEAQALYRKVLR | 0.0715
HMWGAYHDGQVVKFPKKVTVYVIDGQYKRPLANEFVLKFLNYKTSDIIIDKDGNLNNYKNGAVVEH | -2.69
HMATIGVGSKVTLTTYVDWVGNGLLKTRDFYFVSELNGKRAVLRADSMNGAIYAAVNIDNLRI | -2.56
HMNTSMIEHMDKSTFIRFVFTNPVTHDQAVAKLMEKHMWFSTEEKAEAEIDKLLNKTNSLIESGGKLTW | 0.0337

Sequence | soluble fraction (log2)
HMRKGDDRLRAQVDEYISKQGNNTFNYKQVAHAINATSPISQRAVALYLAELAFDGDLLETAPGRYKSPSR | 0.0382
HMEGFKSVYFLTTPSGAEISDRSVGDIISKTPSLVSAQEGTEFEFNLKGYQPSFYMINKRSPDRVFVELIP | -0.535
HMGLAALLQSGPVAGTVLSHQPGGKVVIAFQGQAYPLNLKGRTLQPGQSVLARMAGEQISLEVI | -0.289
HMQISLAAARVNAGLTQEEVAKAMKVGKQTIVSWEKGNSEPKMSQSRELSELYKIPLDYIFYP | -0.322
HMASIGVGTIVRVANAVNYNGVKVKAWFNDEGYEVTELSGDRAVLKHNGDLFDAFHVSDLEA | -1.29
HMVIQRQIPPLVTRMLDGLEQFIQLDMPFDLDTRLGNIEAVRANMDRSDVTSAEAYRQVLELYSIELQ | -0.2
HMLSRTYDSSGPDVKIRGTAQTVADKYMSLARDAQSSGDRVMAENYLQHAEHYNRIIAAAQAQ | 0.254
HMETFEKIKELAKKRGKALGQVEEDLGYGRNTLYKIKNSTPNAERIAEIANYFNVSTDYLLGRTDNPTIAK | 0.203
HMNGADPYEQLGVTRDASDDELKAAHRKLSRENHPDTLMAKGMPPEFIEQANDKMARINAAWDQIRKERGI | 0.26
HMKAQVKSVLDEIPGVGPTRRKALMKHFTSIEEIKQAEFETLLEAEGMNRAAAQSVYDFFHN | -0.138
HMKSNKEKIYDFIQMHDTAEKEGGVSTTYIAQALSLQRTNVSSLLNALVEEGRIHKSNGRPVLYSIAG | 0.0955
HMRLMLITPTEFDEAAEIADNLKDRRAVLMNVEKTDNETARRLIDFLSGVVYALGGKIMRISAQAYVLT | -0.236
HMKEDNPIVLINLQAKEGEWVFKGTGLPYVGKYHQHKNGEYMIGIGVLNLNHELKPDEIIIPNPNK | -0.109
HMNDRRQDVFELLKSSERPVSAADLAHKFGVTRQVIVADIALLRASDIDIVSTNRGYILKANL | -1.49
HMDSAVLQKHLVKLIELHAPIKARNLAKILADEFGKHVDRSAVNSALYSLKAERKVEVNSSYEWSLD | -2.11
HMGTSQSAVKAILAQLISDENKQKPYSDEALSRLLQQQGIDIARRTVAKYREALNIPPAHQRK | 0.101
HMQGENDVTIDPKKLTIGDLAKEISKIEDSEELNNILVAEKEGKGRKGAINAITERIENVSGGTG | 0.133
HMSNTGDIIRKLREESGVTAKELAHRIGLSASQMSRLESGKRRINSEVLTRIARALEVAPSQLID | -0.136
HMSPRQVTAVRSGSPMPVLPGEDWRLYDASGALVARGSGAAPIPKSTGLLRLNSEGLDGLADRWIWVL | -0.255
HMGQVSDENQLNKVIDEVIKNYPIQVEQFKAGKEPILQFLKGMVMKATEGSADPAVAEKLLRKKL | 0.237
HMDELVYVPNITGKTVEEARTELQKRDLGLNIAGHQFSDEFGKGRIISQDPAAGSRLKVNRSISVIVSSGQ | 0.206
HMLMKKTITHEIELLEFLKQIFPQSSTNKLRKMLSNGRIKINSEIVHKAKYKLQENDTFELLDNPT | -0.488
HMVERRVRFTVAPGNAGLRLDLFLTAREIGLSRTQVGRAVDEGQIQVNGRPGRAGRKLKTGDVVAIVLPA | -0.783
HMPPLKYLKVKSYLEAVAVKAESAMRMPTVRELMNQFNVSLATVNRALSELENDGVIVRRQGSGIVAAG | 0.147
HMKPSVEIKVNGGTGAGVVKKGGSITVTANEPAEGKVFTGWQDESGKIVSTQKEYTFTVAEGTTLTAVYED | 0.45
HMYDDLEPFDANGRLRWSDKELILAFGRHRGVTLQTLELNDPGYLRWLLSGNGPLEQQDRKRLEDILES | -1.27
HMNNTIKFSVDIKNSGKRLDIFLSENVTQYTRSYLKRLIENSHVKLNNKILNSPSTKVKFQDQIIINNIE | -1.91
